From publication PMC12421883

Target: M. tuberculosis LamA (MmpS3, Rv2198c) fused to a 3X-FLAG tag at the carboxy terminus (M. tuberculosis)
Experiment: SDS-PAGE with western blot

“M. tuberculosis LamA (MmpS3, Rv2198c) fused to a 3X-FLAG tag at the carboxy terminus (natural protein)” showed a stoichiometry N of 2.
